Data on 2 molecules can be found in patent US20090081195A1, “Inhibitors of Ste20-like Kinase (SLK) and Methods of Modulating Cell Cycle Progression and Cell Motility” (OTTAWA HEALTH RESEARCH INSTITUTE, priority 2005, published 2009).

Data set [1] relates to α-tubulin. In words: GST pulldown binding to α-tubulin. The note with it: in vitro. The source says:
Co-localization of Rac1 (d), Paxillin (e) and Ldb1 (f) with SLK (a-c) in membrane ruffles of migrating fibroblasts on fibronectin (arrowhead). Note the absence of SLK in mature adhesions identified by Paxillin staining (e; arrow). […] (m) Ldb2 binds α-tubulin.

Data set [2] deals with T1, GST-tagged recombinant SLK (Mus musculus, UniProt O54988).
T1 construct: GST (N); made in house; host or cells: bacteria (IPTG-induced, pGEX vector)
T1 sequence (O54988 1-1202 isoform O54988-2): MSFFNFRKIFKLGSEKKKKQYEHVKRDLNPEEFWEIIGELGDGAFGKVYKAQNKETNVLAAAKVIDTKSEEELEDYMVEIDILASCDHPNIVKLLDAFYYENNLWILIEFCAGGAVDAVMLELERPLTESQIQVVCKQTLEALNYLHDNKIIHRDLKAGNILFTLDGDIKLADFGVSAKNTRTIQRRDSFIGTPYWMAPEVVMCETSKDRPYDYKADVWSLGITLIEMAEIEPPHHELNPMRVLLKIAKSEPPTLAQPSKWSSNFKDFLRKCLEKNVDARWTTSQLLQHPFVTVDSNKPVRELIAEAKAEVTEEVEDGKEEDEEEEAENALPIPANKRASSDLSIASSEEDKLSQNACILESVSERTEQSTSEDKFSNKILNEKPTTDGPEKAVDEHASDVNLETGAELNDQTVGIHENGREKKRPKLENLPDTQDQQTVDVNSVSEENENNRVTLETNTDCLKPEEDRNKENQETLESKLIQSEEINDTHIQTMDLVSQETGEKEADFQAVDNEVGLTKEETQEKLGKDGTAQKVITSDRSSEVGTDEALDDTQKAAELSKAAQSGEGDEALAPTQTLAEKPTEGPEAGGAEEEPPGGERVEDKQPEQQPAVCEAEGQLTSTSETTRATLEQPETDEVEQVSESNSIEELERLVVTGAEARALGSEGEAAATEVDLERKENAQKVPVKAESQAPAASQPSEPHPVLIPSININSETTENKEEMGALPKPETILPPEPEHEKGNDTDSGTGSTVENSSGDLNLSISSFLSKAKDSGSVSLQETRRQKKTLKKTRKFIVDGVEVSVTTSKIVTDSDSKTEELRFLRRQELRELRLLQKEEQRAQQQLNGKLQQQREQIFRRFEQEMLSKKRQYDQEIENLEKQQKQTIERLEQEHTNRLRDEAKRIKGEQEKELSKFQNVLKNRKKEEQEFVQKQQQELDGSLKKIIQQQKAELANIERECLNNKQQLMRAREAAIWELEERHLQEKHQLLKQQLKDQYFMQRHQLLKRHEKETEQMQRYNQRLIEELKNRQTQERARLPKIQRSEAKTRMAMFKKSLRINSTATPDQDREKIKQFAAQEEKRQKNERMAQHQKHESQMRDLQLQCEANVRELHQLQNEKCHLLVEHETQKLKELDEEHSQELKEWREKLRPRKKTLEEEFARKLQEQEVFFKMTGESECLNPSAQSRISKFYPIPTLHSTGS
In words: Recombinant SLK kinase assay on histone H1. The note with it: recombinant His-tagged Ldb added to GST-SLK, substrate histone H1. The format is biochemical, murine. The source says:
(a-left panel) MEFs obtained from floxed-Ldb1 mice were generated and infected with recombinant adenovirus harbouring a GFP or Cre recombinase cDNA. […] (right panel) SLK was immunoprecipitated from lysates obtained from Ad-GFP or Ad-Cre infected cells. SLK precipitation efficiency and kinase activity was consistently greater in lysates from Cre-infected cells. In addition, Ldb2 association with the SLK complex was lost in cells lacking Ldb1 (bottom panel). (b) Ldb2 interacts with SLK kinase domain and ATH. […] (c) Ldb1/2 inhibit SLK kinase activity in vitro. Recombinant GST-tagged SLK was prepared and mixed with recombinant His-tagged Ldb2 (lane 2), His-tagged Ldb1 (lane 3) or both (lane 4) and assayed for kinase activity on histone H1. Addition of recombinant Ldb proteins inhibited SLK activity (d) Activation of SLK by scratch wounding is accompanied by a conformational change. Endogenous SLK complexes were immunoprecipitated from unscratched MEFs or 60 min post-wounding and subjected to trypsin digestion. Differential trypsin sensitivity was observed indicative of altered conformation.
Recombinant SLK was prepared by inducing an overnight culture of GST-SLK with IPTG and preparing GST SLK as described above. […]

Data set [3] concerns the target T2, SLK (Mus musculus, UniProt O54988).
T2 construct: made in house; host or cells: bacteria (IPTG-induced; pGEX-5X or 4T1)
T2 sequence (O54988 981-1233): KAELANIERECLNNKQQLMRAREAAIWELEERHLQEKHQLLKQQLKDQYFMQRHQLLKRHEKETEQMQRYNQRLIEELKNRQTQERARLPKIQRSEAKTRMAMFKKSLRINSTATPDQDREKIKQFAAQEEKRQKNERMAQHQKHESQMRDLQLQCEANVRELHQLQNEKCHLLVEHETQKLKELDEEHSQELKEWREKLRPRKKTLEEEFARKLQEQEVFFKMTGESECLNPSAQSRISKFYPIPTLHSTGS
In words: In vitro binding assay, GST-SLK fusions with [35S]-labeled Ldb. Further details: species or system murine. The note with it: GST pulldown, autoradiography. As for the experimental part:
(§1) GST fusion proteins were generated by induction of bacterial cultures with 1 mM isopropyl-beta-D-thiogalactopyranoside (IPTG, Sigma) for 2 hours. Bacteria were pelleted, resuspended in 1 ml bacterial lysis buffer (20% sucrose, 10% glycerol, 50 mM Tris-HCl pH 8.0, 2 mM MgCl2, 2 mM DTT, 10 μg/ml leupeptin, 10 μg/ml pepstatin, 10 μg/ml aprotinin, 1 mM phenylmethylsulphonylfluoride [PMSF] and 100 μM benzamidine) and sonicated on ice.
(§2) Glutathione sepharose beads (Amersham Pharmacia) were added to the cleared supernatants and bound GST fusions were collected by centrifugation, washed three times with NETN and subjected to binding assays. In vitro translated proteins were generated using the TNT quick coupled in vitro transcription translation kit (Promega) according to the manufacturer's instructions. Translated proteins were incubated with either GST or GST fusions in NETN buffer, washed with NETN and eluted from the beads by boiling in sample buffer. Proteins were fractionated by SDS-PAGE, the gels were stained with Coomassie brilliant blue (Sigma) to visualize the proteins, destained (30% methanol, 10% acetic acid), dried and subjected to autoradiography.

In data set [4] the test system is SLK. The data set is described as above. Further details: species or system murine. The note with it: deletions lacking the ATH domain, prolonged exposures. As for the experimental part:
as §1, §2

In data set [5] the target is T3, SLK (Mus musculus, UniProt O54988).
T3 construct: made in house; host or cells: bacteria (IPTG-induced; pGEX-5X or 4T1)
The description is as above. Also on record: species or system murine. The note with it: carboxy-terminal deletion lacking the latter two thirds of the ATH domain. How it is done:
as §1, §2
T3 sequence (O54988 1-950 isoform O54988-2): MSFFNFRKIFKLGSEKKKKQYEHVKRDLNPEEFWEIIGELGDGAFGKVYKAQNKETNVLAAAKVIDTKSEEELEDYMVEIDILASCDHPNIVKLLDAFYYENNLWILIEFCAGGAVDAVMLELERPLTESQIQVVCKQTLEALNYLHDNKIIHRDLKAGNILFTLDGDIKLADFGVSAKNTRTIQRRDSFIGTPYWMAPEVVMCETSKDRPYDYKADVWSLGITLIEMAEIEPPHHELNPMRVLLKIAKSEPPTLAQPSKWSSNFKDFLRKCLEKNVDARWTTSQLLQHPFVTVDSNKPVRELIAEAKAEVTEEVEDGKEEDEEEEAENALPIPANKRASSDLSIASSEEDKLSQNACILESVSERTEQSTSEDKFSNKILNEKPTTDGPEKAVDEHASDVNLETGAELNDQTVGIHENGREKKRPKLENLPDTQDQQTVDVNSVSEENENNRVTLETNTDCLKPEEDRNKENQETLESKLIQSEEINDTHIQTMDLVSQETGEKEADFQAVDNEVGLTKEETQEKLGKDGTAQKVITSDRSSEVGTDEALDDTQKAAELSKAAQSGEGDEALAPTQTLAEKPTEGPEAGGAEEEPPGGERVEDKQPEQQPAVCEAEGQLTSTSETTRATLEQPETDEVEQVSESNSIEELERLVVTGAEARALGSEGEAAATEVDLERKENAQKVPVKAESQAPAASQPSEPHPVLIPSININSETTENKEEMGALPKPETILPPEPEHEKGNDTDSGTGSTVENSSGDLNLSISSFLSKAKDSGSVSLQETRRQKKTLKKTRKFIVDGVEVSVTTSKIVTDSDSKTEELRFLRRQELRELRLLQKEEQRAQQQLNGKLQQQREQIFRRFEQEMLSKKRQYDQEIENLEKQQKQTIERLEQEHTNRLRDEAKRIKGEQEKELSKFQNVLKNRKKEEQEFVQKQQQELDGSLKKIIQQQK

B1: Ldb1: LIM domain binding transcription co-factor; recombinant His-tagged or in vitro translated protein, SLK binding partner (protein)
chain: MLDRDVGPTPMYPPTYLEPGIGRHTPYGNQTDYRIFELNKRLQNWTEECDNLWWDAFTTEFFEDDAMLTITFCLEDGPKRYTIGRTLIPRYFRSIFEGGATELYYVLKHPKEAFHSNFVSLDCDQGSMVTQHGKPMFTQVCVEGRLYLEFMFDDMMRIKTWHFSIRQHRELIPRSILAMHAQDPQMLDQLSKNITRCGLSNSTLNYLRLCVILEPMQELMSRHKTYSLSPRDCLKTCLFQKWQRMVAPPAEPARQQPSKRRKRKMSGGSTMSSGGGNTNNSNSKKKSPASTFALSSQVPDVMVVGEPTLMGGEFGDEDERLITRLENTQFDAANGIDDEDSFNNSPALGANSPWNSKPPSSQESKSENPTSQASQ
modifications: left off: large carriers
On to B1, for which the “binding to α-tubulin” value in data set [1] was “not”. For the same molecule, the SLK kinase activity result in data set [2] was “reduced SLK activity”. Moreover, the “binding to SLK ATH domain (SLK 950-1202)” value in data set [3] is “indistinguishable from Ldb2”.

B2: Ldb2: LIM domain binding transcription co-factor, paralog of Ldb1; recombinant His-tagged or in vitro translated protein (protein)
chain: MSSTPHDPFYSSPFGPFYRRHTPYMVQPEYRIYEMNKRLQSRTEDSDNLWWDAFATEFFEDDATLTLSFCLEDGPKRYTIGRTLIPRYFSTVFEGGVTDLYYILKHSKESYHNSSITVDCDQCAMVTQHGKPMFTKVCTEGRLILEFTFDDLMRIKTWHFTIRQYRELVPRSILAMHAQDPQVLDQLSKNITRMGLTNFTLNYLRLCVILEPMQELMSRHKTYNLSPRDCLKTCLFQKWQRMVAPPAEPTRQPTTKRRKRKNSTSSTSNSSAGNTTNSAGSKKKTPAASLSLATQVPDVMVVGEPTLMGGEFGDEDERLITRLENTQYDAANGMDDEEDFNNSPALGNNSPWNSKPPATQETKSENAPPQASQ
modifications: left off: large carriers
notes: recombinant His-tagged or in vitro translated protein
Consider B2, for which, in data set [1], the “binding to α-tubulin” value is given as “found to bind α-tubulin in vitro”. The SLK kinase activity result in data set [2] is reported as “reduced SLK activity”. The “binding to SLK ATH domain (SLK 950-1202)” value in data set [3] is reported as “highest affinity”. In addition, the “binding to GST-SLK-1-551, GST-SLK-1-373” value in data set [4] was “weak binding”. Further, the “binding to SLK 1-950” value in data set [5] is given as “moderate affinity”.
